Test results published in publication PMC8065100, “How cyanophage S-2L rejects adenine and incorporates 2-aminoadenine to saturate hydrogen bonding in its DNA” (Nature Communications, 2021).

Experiments:
[1] = biological target: S-2L DatZ (dATP triphosphohydrolase, HD-domain phosphohydrolase of cyanophage S-2L) (cyanophage S-2L); assay: AUC + other: DLS; in vitro; stoichiometry worked out assuming a perfectly globular shape; conditions not given
[2] = biological target: T1, DatZ (S-2L HD phosphohydrolase) (Cyanophage S-2L, UniProt A0A7U3TCA2); assay: X-ray crystal structure; hydrolysis to dA seen by HPLC; type: binding; conditions: crystals grown with 10 mM EDTA, pH 7; active site; partially occupied Zn2+ in site A; HPLC assay: 20 mM Tris pH 7, 5 mM MgCl2, 37 °C
T1 construct: full length 175 aa, synthetic codon-optimised gene, N-terminal 14-His tag removed by TEV, E. coli host, hexamer (D3)

Compound | stoichiometry N (protomers per oligomer) [1] | X-ray crystal structure; hydrolysis to dA seen by HPLC [2]
S-2L DatZ (dATP triphosphohydrolase, HD-domain phosphohydrolase of cyanophage S-2L) (enzyme) | 5.9 | –
Nc1ncnc2c1ncn2[C@H]1C[C@H](O)[C@@H](COP(=O)(O)OP(=O)(O)OP(=O)(O)O)O1 [dATP] | – | we solved a third structure of DatZ, this time with bound dATP (PDB ID: 6ZPC
